Assay [1] has as its target T1, FcγRIIa R (FcγRIIa, allotype with Arg at position 131), extracellular domain with C-terminal His tag (human, UniProt P12318 34-217).
T1 construct: extracellular domain; also called FcγRIIa R type; 2aR
T1 sequence (looked up): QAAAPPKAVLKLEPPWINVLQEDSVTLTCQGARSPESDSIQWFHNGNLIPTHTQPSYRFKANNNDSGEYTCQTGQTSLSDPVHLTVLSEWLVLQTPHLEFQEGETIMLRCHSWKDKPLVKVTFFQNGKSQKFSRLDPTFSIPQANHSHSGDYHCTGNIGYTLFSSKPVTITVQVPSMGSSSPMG
Briefly: SPR (Biacore), antibody captured on antigen peptide chip, FcγR as analyte; relative binding. Here is the method: Analysis of interaction between objective antibody and the FcγR was carried out using Biacore T100 (GE Healthcare). HBS-EP+ (GE Healthcare) was used as the running buffer, and the measurement temperature was set to 25° C. Chips produced by immobilizing the antigen peptide by the amine coupling method to a Series S Sencor Chip CM5 (GE Healthcare), or alternatively, chips produced by allowing preliminarily biotinylated antigen peptides to interact with and immobilize onto a Series S Sensor Chip SA (certified) (GE Healthcare) were used. Antibodies of interest were captured onto an antigen peptide-immobilized chip, and allowed to interact to each FcγR diluted with running buffer. To regenerate and repeatedly use the chip, the antibodies captured on the chip were washed off by reacting 10 mM glycine-HCl, pH 1.5.
For orientation: SPR reads the build-up and loss of mass on a sensor chip optically.

Assay [2] has as its target T2, FcγRIIb extracellular domain with C-terminal His tag (human, UniProt P31994 43-217).
T2 construct: extracellular domain; also called FcgRIIb; 2b
T2 sequence (looked up): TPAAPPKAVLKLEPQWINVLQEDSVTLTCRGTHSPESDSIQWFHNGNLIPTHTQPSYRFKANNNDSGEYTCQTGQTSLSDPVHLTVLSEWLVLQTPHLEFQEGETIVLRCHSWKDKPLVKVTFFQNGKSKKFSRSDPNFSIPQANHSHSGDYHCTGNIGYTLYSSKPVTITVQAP
As to the kind of experiment: SPR (Biacore), relative binding.

B1: GpH7-B3 variant P331_09D/GpL16-k0 (antibody, human IgG1, kappa)
heavy: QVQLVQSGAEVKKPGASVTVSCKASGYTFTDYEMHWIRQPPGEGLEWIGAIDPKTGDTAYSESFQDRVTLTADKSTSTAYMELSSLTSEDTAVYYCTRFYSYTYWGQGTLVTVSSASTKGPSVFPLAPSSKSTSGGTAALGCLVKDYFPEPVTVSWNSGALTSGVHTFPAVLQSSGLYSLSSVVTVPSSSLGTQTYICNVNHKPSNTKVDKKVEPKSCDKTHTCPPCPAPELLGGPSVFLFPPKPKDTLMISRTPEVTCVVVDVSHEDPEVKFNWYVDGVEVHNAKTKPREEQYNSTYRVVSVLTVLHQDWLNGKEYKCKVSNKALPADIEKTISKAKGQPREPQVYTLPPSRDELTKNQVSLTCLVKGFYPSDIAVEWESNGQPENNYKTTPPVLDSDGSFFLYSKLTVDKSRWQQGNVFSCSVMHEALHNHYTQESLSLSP
light: DIVMTQSPLSLPVTPGEPASISCQASESLVHSNRNTYLHWYLQKPGQSPQLLIYKVSNRFSGVPDRFSGSGSGTDFTLKISRVEAEDVGVYYCSQNTHVPPTFGQGTKVEIERTVAAPSVFIFPPSDEQLKSGTASVVCLLNNFYPREAKVQWKVDNALQSGNSQESVTEQDSKDSTYSLSSTLTLSKADYEKHKVYACEVTHQGLSSPVTKSFNRGEC
notes: also called Ho Ab
In the case of B1, the Ho/Con_2aR in assay [1] was 88.8 % of GpH7-B3/GpL16-k0 (=100).

B2: GpH7-B3 variant P331_07I/GpL16-k0 (antibody, human IgG1, kappa)
heavy: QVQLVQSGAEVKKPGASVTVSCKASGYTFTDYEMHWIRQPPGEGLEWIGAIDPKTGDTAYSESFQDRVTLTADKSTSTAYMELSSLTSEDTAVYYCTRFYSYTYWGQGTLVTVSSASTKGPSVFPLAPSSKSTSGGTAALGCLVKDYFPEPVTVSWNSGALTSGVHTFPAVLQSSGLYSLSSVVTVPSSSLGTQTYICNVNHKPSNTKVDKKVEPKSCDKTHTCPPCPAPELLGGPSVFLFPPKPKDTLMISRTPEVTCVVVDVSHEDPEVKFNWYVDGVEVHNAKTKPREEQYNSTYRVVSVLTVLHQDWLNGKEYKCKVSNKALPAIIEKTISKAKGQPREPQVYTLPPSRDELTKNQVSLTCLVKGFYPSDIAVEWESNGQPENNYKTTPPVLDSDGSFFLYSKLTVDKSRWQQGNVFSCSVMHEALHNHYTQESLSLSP
light: DIVMTQSPLSLPVTPGEPASISCQASESLVHSNRNTYLHWYLQKPGQSPQLLIYKVSNRFSGVPDRFSGSGSGTDFTLKISRVEAEDVGVYYCSQNTHVPPTFGQGTKVEIERTVAAPSVFIFPPSDEQLKSGTASVVCLLNNFYPREAKVQWKVDNALQSGNSQESVTEQDSKDSTYSLSSTLTLSKADYEKHKVYACEVTHQGLSSPVTKSFNRGEC
notes: also called Ho Ab
B2: the Ho/Con_2aR in assay [1] was 67 % of GpH7-B3/GpL16-k0 (=100).

B3: GpH7-B3 variant P331_06M/GpL16-k0 (antibody, human IgG1, kappa)
heavy: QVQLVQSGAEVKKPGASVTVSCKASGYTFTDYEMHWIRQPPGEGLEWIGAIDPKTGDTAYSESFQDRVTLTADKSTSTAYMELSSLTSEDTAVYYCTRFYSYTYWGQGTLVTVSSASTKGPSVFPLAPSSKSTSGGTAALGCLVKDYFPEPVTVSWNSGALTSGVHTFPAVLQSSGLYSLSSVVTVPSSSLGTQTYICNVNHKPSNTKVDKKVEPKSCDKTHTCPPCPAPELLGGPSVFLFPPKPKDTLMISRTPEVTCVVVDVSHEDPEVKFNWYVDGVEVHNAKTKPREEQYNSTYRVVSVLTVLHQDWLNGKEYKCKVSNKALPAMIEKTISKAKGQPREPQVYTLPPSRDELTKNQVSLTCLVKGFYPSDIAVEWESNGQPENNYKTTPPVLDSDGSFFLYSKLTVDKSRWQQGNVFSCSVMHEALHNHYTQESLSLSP
light: DIVMTQSPLSLPVTPGEPASISCQASESLVHSNRNTYLHWYLQKPGQSPQLLIYKVSNRFSGVPDRFSGSGSGTDFTLKISRVEAEDVGVYYCSQNTHVPPTFGQGTKVEIERTVAAPSVFIFPPSDEQLKSGTASVVCLLNNFYPREAKVQWKVDNALQSGNSQESVTEQDSKDSTYSLSSTLTLSKADYEKHKVYACEVTHQGLSSPVTKSFNRGEC
notes: also called Ho Ab
With B3, in assay [1], the Ho/Con_2aR was 79.8 % of GpH7-B3/GpL16-k0 (=100).

B4: GpH7-A5/GpH7-B3 variant T335_16H/GpL16-k0 (antibody, human IgG1, kappa)
heavy 1: not shown
heavy 2: not shown
light: DIVMTQSPLSLPVTPGEPASISCQASESLVHSNRNTYLHWYLQKPGQSPQLLIYKVSNRFSGVPDRFSGSGSGTDFTLKISRVEAEDVGVYYCSQNTHVPPTFGQGTKVEIERTVAAPSVFIFPPSDEQLKSGTASVVCLLNNFYPREAKVQWKVDNALQSGNSQESVTEQDSKDSTYSLSSTLTLSKADYEKHKVYACEVTHQGLSSPVTKSFNRGEC
notes: also called He Ab T335_16H
As to B4, the He/Con_2b in assay [2] is 102 % of HeCon Ab GpH7-A5/GpH7-B3/GpL16-k0.

B5: GpH7-A5/GpH7-B3 variant Y296_20W/GpL16-k0 (antibody, human IgG1, kappa)
heavy 1: not shown
heavy 2: not shown
light: DIVMTQSPLSLPVTPGEPASISCQASESLVHSNRNTYLHWYLQKPGQSPQLLIYKVSNRFSGVPDRFSGSGSGTDFTLKISRVEAEDVGVYYCSQNTHVPPTFGQGTKVEIERTVAAPSVFIFPPSDEQLKSGTASVVCLLNNFYPREAKVQWKVDNALQSGNSQESVTEQDSKDSTYSLSSTLTLSKADYEKHKVYACEVTHQGLSSPVTKSFNRGEC
notes: also called He Ab Y296_20W
Consider B5, for which, in assay [2], the He/Con_2b was 103 % of HeCon Ab GpH7-A5/GpH7-B3/GpL16-k0.

B6: GpH7-A5/GpH7-B3 variant S337_18N/GpL16-k0 (antibody, human IgG1, kappa)
heavy 1: not shown
heavy 2: not shown
light: DIVMTQSPLSLPVTPGEPASISCQASESLVHSNRNTYLHWYLQKPGQSPQLLIYKVSNRFSGVPDRFSGSGSGTDFTLKISRVEAEDVGVYYCSQNTHVPPTFGQGTKVEIERTVAAPSVFIFPPSDEQLKSGTASVVCLLNNFYPREAKVQWKVDNALQSGNSQESVTEQDSKDSTYSLSSTLTLSKADYEKHKVYACEVTHQGLSSPVTKSFNRGEC
notes: also called He Ab S337_18N
With B6, the He/Con_2b in assay [2] was 103 % of HeCon Ab GpH7-A5/GpH7-B3/GpL16-k0.

B7: GpH7-A5/GpH7-B3 variant V266_06M/GpL16-k0 (antibody, human IgG1, kappa)
heavy 1: not shown
heavy 2: not shown
light: DIVMTQSPLSLPVTPGEPASISCQASESLVHSNRNTYLHWYLQKPGQSPQLLIYKVSNRFSGVPDRFSGSGSGTDFTLKISRVEAEDVGVYYCSQNTHVPPTFGQGTKVEIERTVAAPSVFIFPPSDEQLKSGTASVVCLLNNFYPREAKVQWKVDNALQSGNSQESVTEQDSKDSTYSLSSTLTLSKADYEKHKVYACEVTHQGLSSPVTKSFNRGEC
notes: also called He Ab V266_06M
Take B7: the He/Con_2b in assay [2] is 251 % of HeCon Ab GpH7-A5/GpH7-B3/GpL16-k0.

B8: GpH7-B3 variant P331_08L/GpL16-k0 (antibody, human IgG1, kappa)
heavy: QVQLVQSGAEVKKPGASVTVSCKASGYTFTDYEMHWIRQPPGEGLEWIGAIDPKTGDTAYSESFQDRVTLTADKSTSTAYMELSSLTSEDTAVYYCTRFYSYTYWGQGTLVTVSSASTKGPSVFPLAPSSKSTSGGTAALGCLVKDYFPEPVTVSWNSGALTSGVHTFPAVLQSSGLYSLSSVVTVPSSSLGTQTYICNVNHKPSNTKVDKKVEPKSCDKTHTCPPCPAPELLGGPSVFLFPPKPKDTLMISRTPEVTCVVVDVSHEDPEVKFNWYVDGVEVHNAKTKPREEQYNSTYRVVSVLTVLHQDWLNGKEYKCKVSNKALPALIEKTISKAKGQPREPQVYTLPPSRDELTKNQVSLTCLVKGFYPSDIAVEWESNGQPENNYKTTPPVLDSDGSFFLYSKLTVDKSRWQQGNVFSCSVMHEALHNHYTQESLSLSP
light: DIVMTQSPLSLPVTPGEPASISCQASESLVHSNRNTYLHWYLQKPGQSPQLLIYKVSNRFSGVPDRFSGSGSGTDFTLKISRVEAEDVGVYYCSQNTHVPPTFGQGTKVEIERTVAAPSVFIFPPSDEQLKSGTASVVCLLNNFYPREAKVQWKVDNALQSGNSQESVTEQDSKDSTYSLSSTLTLSKADYEKHKVYACEVTHQGLSSPVTKSFNRGEC
notes: also called Ho Ab
With B8, the Ho/Con_2aR in assay [1] was 74.4 % of GpH7-B3/GpL16-k0 (=100).

B9: GpH7-A5/GpH7-B3 variant T335_19Q/GpL16-k0 (antibody, human IgG1, kappa)
heavy 1: not shown
heavy 2: not shown
light: DIVMTQSPLSLPVTPGEPASISCQASESLVHSNRNTYLHWYLQKPGQSPQLLIYKVSNRFSGVPDRFSGSGSGTDFTLKISRVEAEDVGVYYCSQNTHVPPTFGQGTKVEIERTVAAPSVFIFPPSDEQLKSGTASVVCLLNNFYPREAKVQWKVDNALQSGNSQESVTEQDSKDSTYSLSSTLTLSKADYEKHKVYACEVTHQGLSSPVTKSFNRGEC
notes: also called He Ab T335_19Q
As for B9, the He/Con_2b in assay [2] was 100 % of HeCon Ab GpH7-A5/GpH7-B3/GpL16-k0.

B10: GpH7-A5/GpH7-B3 variant T335_20W/GpL16-k0 (antibody, human IgG1, kappa)
heavy 1: not shown
heavy 2: not shown
light: DIVMTQSPLSLPVTPGEPASISCQASESLVHSNRNTYLHWYLQKPGQSPQLLIYKVSNRFSGVPDRFSGSGSGTDFTLKISRVEAEDVGVYYCSQNTHVPPTFGQGTKVEIERTVAAPSVFIFPPSDEQLKSGTASVVCLLNNFYPREAKVQWKVDNALQSGNSQESVTEQDSKDSTYSLSSTLTLSKADYEKHKVYACEVTHQGLSSPVTKSFNRGEC
notes: also called He Ab T335_20W
Turning to B10, the He/Con_2b in assay [2] is 104 % of HeCon Ab GpH7-A5/GpH7-B3/GpL16-k0.

The record behind these values is patent publication US20150344570A1 (published 2015).
